{"source": "paper PMC9039656", "binders": {"B1": {"name": "NtPMT2 MRE-like probe (dsDNA)", "DNA 1": "CCAACAACCGCGCCAACAACCGCGCCAACAACCGCG", "DNA 2": "CGCGGTTGTTGGCGCGGTTGTTGGCGCGGTTGTTGG"}}, "molecular_target": "T1, PAP1 R2R3-MYB domain (UniProt Q9FE25 1-178)", "T1 sequence": "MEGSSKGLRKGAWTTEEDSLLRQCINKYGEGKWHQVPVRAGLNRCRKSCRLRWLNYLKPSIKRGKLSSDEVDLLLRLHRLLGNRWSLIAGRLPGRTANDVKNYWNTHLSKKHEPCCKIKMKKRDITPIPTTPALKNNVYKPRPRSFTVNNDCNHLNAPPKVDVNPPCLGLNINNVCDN", "experiment": "EMSA"}
{"binder": "B1", "values": [{"measurement": "binding result", "result": "no binding"}]}
